Results published in the supplement of paper PMC7125110.
± gives the standard error. Fewer inactive variants are shown than the library holds.

B1: glmS ribozyme (parent)
chain: AUAAAAGCGCCAGAACUACAGAAAUGUAGUUGACGAGGAGGAGGUUUAUCGAAUUUUCGGCGGAUGCCUCCAAA

Assays:
Conditions in all cases: with glucosamine-6-phosphate
glucosamine-6-phosphate [1] = variants of: B1; assay: self-cleavage kobs at 40 uM GlcN6P; higher = faster cleavage; RNA array
Method in brief: (§1)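 Barcoded ribozyme variants on sequenced MiSeq chips were transcribed in situ by E. coli RNA polymerase and followed at 37 °C through a hybridised Cy3 probe. Glucosamine-6-phosphate at 40 μM to 10 mM in HEPES/KCl/Mg(OAc)2 buffer was flowed in, and tiles were imaged over ~14 h. Signals were normalised to baseline and to non-cleaving reference variants, and per-tile medians were fit to one- or two-exponential decays to give kobs. Weighted Michaelis–Menten fits across concentrations gave kcat and KM.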

glucosamine-6-phosphate [2] = variants of: B1; assay: self-cleavage kobs at 640 uM GlcN6P; higher = faster cleavage; RNA array
Method in brief: as §1

glucosamine-6-phosphate [3] = variants of: B1; assay: self-cleavage kobs at 160 uM GlcN6P; higher = faster cleavage; RNA array
Method in brief: as §1

glucosamine-6-phosphate [4] = variants of: B1; assay: self-cleavage kobs at 2500 uM GlcN6P; higher = faster cleavage; RNA array
Method in brief: as §1

glucosamine-6-phosphate [5] = variants of: B1; assay: self-cleavage kobs at 10000 uM GlcN6P; higher = faster cleavage; RNA array
Method in brief: as §1

Variant | self-cleavage kobs at 40 uM GlcN6P (glucosamine-6-phosphate [1]) [s⁻¹] | self-cleavage kobs at 640 uM GlcN6P (glucosamine-6-phosphate [2]) [s⁻¹] | self-cleavage kobs at 160 uM GlcN6P (glucosamine-6-phosphate [3]) [s⁻¹] | self-cleavage kobs at 2500 uM GlcN6P (glucosamine-6-phosphate [4]) [s⁻¹] | self-cleavage kobs at 10000 uM GlcN6P (glucosamine-6-phosphate [5]) [s⁻¹]
G29U U30A U31G A53U | < 1e-05 | 7.01e-05 ± 2.6e-05 | – | – | –
U30C A33C | < 1e-05 | < 1e-05 | < 1e-05 | – | –
U30C G37U | < 1e-05 | – | – | – | –
A33C G40C G44U C50U | < 1e-05 | – | – | < 1e-05 | –
G32U U47G U69G | 0.000146 ± 3.4e-05 | – | – | – | 0.000404 ± 7.2e-05
G29U G37C A42U | < 1e-05 | < 1e-05 | – | < 1e-05 | –
G29U G43A G63A | < 1e-05 | – | – | – | –
U31C U56G | 0.000154 ± 1.9e-05 | 0.000899 ± 0.00013 | 0.000413 ± 9.2e-05 | 0.00194 ± 0.0003 | 0.00757 ± 0.00091
U31A U56A | 0.000218 ± 3.2e-05 | 0.00221 ± 0.00061 | – | 0.00123 ± 0.0005 | 0.00967 ± 0.0011
G32A C50A U55G C71G | < 1e-05 | – | – | – | –
U30G U31G U46G U55A | 0.000118 ± 3.3e-05 | – | – | – | 0.00358 ± 0.00067
G32U G63U C71A | < 1e-05 | < 1e-05 | – | – | < 1e-05
G29U G40C A52G | < 1e-05 | – | – | – | –
U30G U47C C70G | < 1e-05 | 5.55e-05 ± 2e-05 | – | 0.000116 ± 2.6e-05 | 7.72e-05 ± 2.2e-05
U31C C68A | < 1e-05 | – | – | – | < 1e-05
G32U C58G A64G C67A | 7.51e-05 ± 2.6e-05 | – | – | – | 0.000152 ± 2.4e-05
G32A G59C | < 1e-05 | < 1e-05 | < 1e-05 | < 1e-05 | –
G32U G40U U46C U54G C70G | < 1e-05 | – | – | – | –
G32A C70U | 6.22e-05 ± 6.9e-06 | 0.000627 ± 9.7e-05 | 0.000126 ± 2.7e-05 | 0.000902 ± 0.00023 | 0.00374 ± 0.00046
U30A C58A G60C U69G | < 1e-05 | – | – | – | < 1e-05
U30C G62C | < 1e-05 | < 1e-05 | – | – | < 1e-05
U30A G37C U65C | < 1e-05 | – | – | < 1e-05 | –
U30C G35A | < 1e-05 | < 1e-05 | < 1e-05 | < 1e-05 | < 1e-05
G29C U65C | < 1e-05 | – | < 1e-05 | – | –
